Measured values reported in patent US20080226632 (published 2008).

Tests used:
HB-EGF = target: T1, HB-EGF (human, UniProt Q99075)
T1 chain: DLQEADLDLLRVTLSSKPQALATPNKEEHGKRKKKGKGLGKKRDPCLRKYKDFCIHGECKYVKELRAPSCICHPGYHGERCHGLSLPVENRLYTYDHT

EGF = EGF (human, UniProt P01133)
Sequence of EGF (P01133 971-1023): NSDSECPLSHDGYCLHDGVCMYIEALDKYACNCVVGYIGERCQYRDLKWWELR

Binder	binding result (HB-EGF)	binding result (EGF)
PAR34 (antibody, V domains shown) VH: EIQLQQSGPELVKPGASVKVSCKASGYAFTNYNMYWVKQSHGKSLEWIGYIDPYYGDPGYSQKFKGKATLTVDKSSSTAYMHLNSLTSEDSAVYYCARRGNFPYYFDYWGQGTTLTVSS VL: DIKMTQSPSSMYASLGERVTITCKASQDINSYLSWFQQKPGKSPKTLIYRANRLVDGVPSRFSGSGSGQDYSLTISSLEYEDMGIYYCLQYDEFPYTFGGGTKLEIK	no binding	no binding
PAR80 (antibody, V domains shown) VH: EVQLQQSGAELVRSGASVKLSCTASGFNIKDYYIHWVKQRPEQGLEWIGCIDPENGDTEYAPNFQGRATMTADTSSNTAYLQLSSLTSEDTAVYYCYGGTITFAYWGQGTLVTVSA VL: QAVVTQESALTTSPGETVTLTCRSSTGAVTTSNSANWVQEKPDHLFTGLIGGTINRVPGVPARFSGSLIGDKAALTITGAQTEDEAIYFCALWYSNHWVFGGGTKLTVLG	no binding	no binding
